In article PMC9087419 (European Journal of Immunology, 2022):
Numbering of substitutions follows the chain as printed.

B1: AZD8895 (Tixagevimab) (antibody, V domains shown)
VH: QMQLVQSGPEVKKPGTSVKVSCKASGFTFMSSAVQWVRQARGQRLEWIGWIVIGSGNTNYAQKFQERVTITRDMSTSTAYMELSSLRSEDTAVYYCAAPYCSSISCNDGFDIWGQGTMVTVSS
VL: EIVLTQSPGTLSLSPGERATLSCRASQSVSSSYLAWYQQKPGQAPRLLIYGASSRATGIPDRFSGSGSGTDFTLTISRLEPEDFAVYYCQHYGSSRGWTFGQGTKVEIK
B2: BMS‐986413 (C144) (antibody, V domains shown)
VH: EVQLVESGGGLIQPGGSLRLSCAASGFTVSNNYMSWVRQAPGKGLEWVSVIYSGGSTYYADSVKGRFTISRDKSKNTLYLQMNRLRAEDTAVYYCAREGEVEGYNDFWSGYSRDRYYFDYWGQGTLVTVSS
VL: QSALTQPASVSGSPGQSITISCTGTSSDVGGYNYVSWYQQHPGKAPKLMIYDVSNRPSGVSNRFSGSKSGNTASLTISGLQAEDEADYYCSSYTSSSTRVFGTGTKVTVL
B3: REGN10987 (Imdevimab) (antibody, V domains shown)
VH: QVQLVESGGGVVQPGRSLRLSCAASGFTFSNYAMYWVRQAPGKGLEWVAVISYDGSNKYYADSVKGRFTISRDNSKNTLYLQMNSLRTEDTAVYYCASGSDYGDYLLVYWGQGTLVTVSS
VL: B2 VL with N55K, A82S, S91N, Y93L, S96I, R99W, T103G, V107L
B4: 8D2 (antibody, V domains shown)
VH: EVQLVESGGGLVQPGGSLRLSCAASGFTFSSYWMSWVRQAPGKGLEWVANINQDGSEKYYVDSVKGRFTISRDNAKNSLYLQVNSLRAEDTAVYYCARDWDYDILTGSWFGAFDIWGQGTTVTVSS
VL: DIQMTQSPSSLSASVGDRVTITCRASQGIRNDLGWYQQKPGKAPKRLIYAASSLQSGVPSRFSGSGSGTEFTLTISSLQPEDFATYYCLQHNSYPLTFGGGTKVEIK
B5: S2H97 (antibody, V domains shown)
VH: QVRLVQSGAEVKKSGESLKISCKGSGYSFTSYWIGWVRQMPGKGLEWMGIIYPGDSDTRYSPSFQGQVTISADKSISTVYLQWSSLKASDTAMYYCARQWSHYTYDYYYWGQGTLVTISS
VL: QSVLTQPASVSGSPGQSITISCTGISSDVGGYNSVSWYQQHPGKAPKLMIYDVTNRPSGVSNRFSGSKSGNTASLTISGLQAEDEADYYCSSYTSSSTPPYVFGTGTKVSVL
B6: REGN10933 (Casirivimab) (antibody, V domains shown)
VH: QVQLVESGGGLVKPGGSLRLSCAASGFTFSDYYMSWIRQAPGKGLEWVSYITYSGSTIYYADSVKGRFTISRDNAKSSLYLQMNSLRAEDTAVYYCARDRGTTMVPFDYWGQGTLVTVSS
VL: DIQMTQSPSSLSASVGDRVTITCQASQDITNYLNWYQQKPGKAPKLLIYAASNLETGVPSRFSGSGSGTDFTFTISGLQPEDIATYYCQQYDNLPLTFGGGTKVEIK
B7: 3467 (antibody, V domains shown)
VH: QVQLQESGPGLVKPSETLSLTCTVSGGSISSYHWNWIRQPPGKGLEWIGYIYYSGNTNYNPSLKSRVSISTDTSKNQFSLKLSSVTAADTAVYYCVREMRRGYSGYDYWDLYAFDIWGQGTMVTVSS
VL: DIQLTQSPSFLSASVGDRVTITCRASQGISSYLAWYQQKPGKAPNLLIYAASTLQSGVPSRFSGSGSGTEFTLTISSLQPEDFATYYCQQLNSYPHTFGQGTKLEIK
notes: also called TRIANNI mouse‐derived antibody 3467
B8: CT‐P59 (Regdanivimab) (antibody, V domains shown)
VH: QITLKESGPTLVKPTQTLTLTCSFSGFSLSTSGVGVGWIRQPPGKALEWLALIDWDDNKYHTTSLKTRLTISKDTSKNQVVLTMTNMDPVDTATYYCARIPGFLRYRNRYYYYGMDVWGQGTTVTVSS
VL: ELVLTQPPSVSAAPGQKVTISCSGSSSNIGNNYVSWYQQLPGTAPKLLIYDNNKRPSGIPDRFSGSKSGTSATLGITGLQTGDEADYYCGTWDSSLSAGVFGGGTELTVL
notes: also called Regdanvimab; Regkirona
B9: LY‐CoV016 (Etesevimab) (antibody, V domains shown)
VH: EVQLVESGGGLVQPGGSLRLSCAASGFTVSSNYMSWVRQAPGKGLEWVSVIYSGGSTFYADSVKGRFTISRDNSMNTLFLQMNSLRAEDTAVYYCARVLPMYGDYLDYWGQGTLVTVSS
VL: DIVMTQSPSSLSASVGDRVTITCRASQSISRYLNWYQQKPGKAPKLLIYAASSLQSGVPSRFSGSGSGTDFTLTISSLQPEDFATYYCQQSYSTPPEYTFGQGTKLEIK
B10: LY‐CoV555 (Bamlanivimab) (antibody, V domains shown)
VH: QVQLVQSGAEVKKPGSSVKVSCKASGGTFSNYAISWVRQAPGQGLEWMGRIIPILGIANYAQKFQGRVTITADKSTSTAYMELSSLRSEDTAVYYCARGYYEARHYYYYYAMDVWGQGTAVTVSS
VL: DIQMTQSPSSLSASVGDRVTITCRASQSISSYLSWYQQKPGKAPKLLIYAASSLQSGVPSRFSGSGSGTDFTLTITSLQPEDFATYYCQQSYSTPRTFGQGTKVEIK
B11: AZD1061 (Cilgavimab) (antibody, V domains shown)
VH: EVQLVESGGGLVKPGGSLRLSCAASGFTFRDVWMSWVRQAPGKGLEWVGRIKSKIDGGTTDYAAPVKGRFTISRDDSKNTLYLQMNSLKTEDTAVYYCTTAGSYYYDTVGPGLPEGKFDYWGQGTLVTVSS
VL: not shown
B12: BMS‐986414 (C135) (antibody, V domains shown)
VH: QVQLVESGGGVVQPGRSLRLSCAASGFTFSSYAMHWVRQAPGKGLEWVAVIPFDGRNKYYADSVTGRFTISRDNSKNTLYLQMNSLRAEDTAVYYCASSSGYLFHSDYWGQGTLVTVSS
VL: DIQMTQSPSTLSASVGDRVTITCRASQSISNWLAWFQQKPGKAPKLLIYEASSLESGVPSRFSGSGSGTEFTLTISSLQPDDFATYYCQQYNSYPWTFGQGTKVEIK

Each binder was assayed against T1, SARS‐CoV‐2 spike membrane protein of the Wuhan‐Hu‐1 strain (SARS-CoV-2 Wuhan-Hu-1 (QHD43416.1), UniProt P0DTC2) (assay: flow cytometry on cells). Conditions: one partner purified.
T1 construct: source: HEK293, transiently cotransfected (PEI) with a GFP plasmid, on the cell surface

Going from B1 to B2, the MdFI rises from 250000 to 340000.

Compared with B3, B4 is lower in MdFI: 371000 for the first, 37000 for the second.

Going from B5 to B6, the MdFI rises from 58000 to 236000.

Going from B7 to B8, the MdFI falls from 165000 to 131000.

Going from B9 to B10, the MdFI rises from 282000 to 355000.

The binders below were run against T2, SARS‐CoV‐2 spike membrane protein of the Omicron variant (B.1.1.529) (SARS-CoV-2, Omicron variant B.1.1.529, …, strain) (assay: flow cytometry on cells). Conditions: one partner purified.
T2 construct: also called Omicron spike protein

First: B1
Second: B5
The MdFI of the first is lower: 73000 for the first, 296000 for the second.

First: B11
Second: B6
The MdFI of the first is lower: 101000 for the first, 103000 for the second.

Binder B7 has a MdFI of 25000.

The binders below were run against T3, SARS‐CoV‐2 spike membrane protein of the Delta variant (B.1.617.2) (SARS-CoV-2, Delta variant B.1.617.2, strain) (assay: flow cytometry on cells). Conditions: one partner purified.
T3 construct: also called Delta spike protein

Going from B1 to B2, the MdFI rises from 59000 to 408000.

Compared with B3, B5 is lower in MdFI: 471000 for the first, 74000 for the second.

First: B11
Second: B6
The MdFI of the first is higher: 468000 for the first, 148000 for the second.

Compared with B7, B12 is higher in MdFI: 31000 for the first, 666000 for the second.

First: B8
Second: B9
The MdFI of the first is higher: 233000 for the first, 192000 for the second.

B10 showed a MdFI of 40000.
